Data: patent publication US20260193679A1, “SYSTEMS AND METHODS FOR MODIFYING A POLYNUCLEOTIDE” (The Children's Medical Center Corporation, priority 2023, published 2026)

What was measured:
[1] = system: ATP1A1; test: Prime editing at ATP1A1 (Q118R) in CD34+ HSPCs; PE and indels quantified by BEAT/TIDE (Sanger) or CRISPResso2 (amplicon sequencing); type: cell-based, human; settings: for PE2max efficiency: compared to two substitutions (v1), no nicking sgRNA
[2] = system: B2M; test: Prime editing at B2M in CD34+ HSPCs; type: cell-based, human; settings: PE2max; average, three donors; amplicon sequencing
From the text: FIGS. 6A-6D provide schematics and plots showing that modulation of nucleotide metabolism positively interacts with MMR evasion. (FIG. 6A) PE and indel quantification as determined by CRISPResso2 analysis from amplicon sequencing. The MMR evasion strategy based on the installation of additional silent mutations and the epegRNAs used to target the ATP1A1 locus are illustrated. Point mutations are illustrated in orange. 2.5×10^5 HSPCs were electroporated with PE2max RNAs targeting ATP1A1 and cultured in the presence or absence of 50 μM each dN and 25× in-house Vpx VLPs. Genomic DNA was harvested 3 days post-nucleofection. Data are plotted as mean±SEM from n=3 independent biological replicates performed with CD34^+ HSPCs from three different donors. (FIG. 6B) Same as in (FIG. 6A), but HSPCs were electroporated with Vpx mRNA and PE2max RNAs targeting B2M. Data are plotted as mean±SEM from n=3 independent biological replicates performed with CD34^+ HSPCs from three different donors. (FIG. 6C) Same as in (FIG. 6B), but HSPCs were electroporated with Vpx mRNA and PE3max RNAs targeting the HBG1/HBG2 promoters. […]
FIGS. 10A-10C provide a schematic and plots showing that modulation of nucleotide metabolism positively interacts with MMR-evading epegRNAs in quiescent HSPCs. […] (FIG. 10B) PE and indels quantification as determined by BEAT and TIDE analysis from Sanger sequencing. […]

Molecule: PE2: first-generation prime editor mRNA, SEQ ID NO: 67 [reference compound]
- frequency of alleles harboring the ATP1A1-Q118R mutation ([1]; PE2 mRNA + epegRNA/nicking sgRNA, absence of VPX VLPs, average, two donors, Sanger sequencing): 17%

Molecule: PEmax: PEmax prime editor mRNA, SEQ ID NO: 68 [reference compound]
- basal level of editing, ATP1A1-Q118R allele frequency ([1]; PEmax mRNA (PE3max RNAs), no dNs, average, three donors): 41%

B1: ATP1A1-Q118R_v2 epegRNA: synthetic epegRNA, SEQ ID NO: 7; three substitutions, optimized to evade MMR (nucleic acid)
guide: GUUCCUCUUCUGUAGCAGCUGUUUUAGAGCUAGAAAUAGCAAGUUAAAAUAAGGCUAGUCCGUUAUCAACUUGAAAAAGUGGCACCGAGUCGGUGCUAGCAUCAGGGCUGCUACAGAAGAGCGCGGUUCUAUCUAGUUACGCGUUAAACCAACUAGAAUUU
modifications: modified_base 1 OTHER; 2'-O-methyl modified nucleotide with phosphorothioate linkage; modified_base 2 OTHER; modified_base 3 OTHER; modified_base 158 OTHER; Nucleotide with phosphorothioate linkage; modified_base 159 OTHER; 2'-O-methyl modified nucleotide with phosphorothio
notes: three substitutions, optimized to evade MMR
- PE2max efficiency [1]: marked increase
- level of improvement by Vpx mRNA co-delivery and dN supplementation ([1]; quiescent HSPCs, compared with HBB and B2M epegRNAs): highest level of improvement

B2: v3 epegRNA: synthetic epegRNA, SEQ ID NO: 8; four substitutions (+3 TTGG to CCTA) (nucleic acid)
guide: GUUCCUCUUCUGUAGCAGCUGUUUUAGAGCUAGAAAUAGCAAGUUAAAAUAAGGCUAGUCCGUUAUCAACUUGAAAAAGUGGCACCGAGUCGGUGCUAGCAUUAGGGCUGCUACAGAAGAGCGCGGUUCUAUCUAGUUACGCGUUAAACCAACUAGAAUUU
modifications: modified_base 1 OTHER; 2'-O-methyl modified nucleotide with phosphorothioate linkage; modified_base 2 OTHER; modified_base 3 OTHER; modified_base 158 OTHER; Nucleotide with phosphorothioate linkage; modified_base 159 OTHER; 2'-O-methyl modified nucleotide with phosphorothio
- precise prime editing allele frequency ([1]; PE2max, without Vpx VLPs and dNs, average, amplicon sequencing): 20.1%
- PE2max efficiency [1]: marked increase

B3: original B2M epegRNA: synthetic epegRNA to knockout B2M, single nucleotide substitution; SEQ ID NO: 12 (nucleic acid)
guide: GAGUAGCGCGAGCACAGCUAGUUUUAGAGCUAGAAAUAGCAAGUUAAAAUAAGGCUAGUCCGUUAUCAACUUGAAAAAGUGGCACCGAGUCGGUGCUCCGUGGCCUGAGCUGUGCUCGCGCCGCGGUUCUAUCUAGUUACGCGUUAAACCAACUAGAAUUU
modifications: modified_base 1 OTHER; 2'-O-methyl modified nucleotide with phosphorothioate linkage; modified_base 2 OTHER; modified_base 3 OTHER; modified_base 158 OTHER; Nucleotide with phosphorothioate linkage; modified_base 159 OTHER; 2'-O-methyl modified nucleotide with phosphorothio
- PE efficiency [2]: 2%
